Experimental data from publication PMC7990167, “An antibody targeting type III secretion system induces broad protection against Salmonella and Shigella infections” (PLoS Neglected Tropical Diseases, 2021).
Values joined by “and” are separate entries in the source; they are usually repeats but may differ in a detail not shown here. Equal entries are not always repeated.

Target: T1, IpaD (wild type, Shigella flexneri) expressed on the surface of yeast cells (Shigella flexneri, gene synthesized …, UniProt P18013)
T1 construct: IpaD of Shigella flexneri; also called wild-type IpaD; needle tip protein of the Shigella type III secretion system
T1 sequence (P18013 whole entry): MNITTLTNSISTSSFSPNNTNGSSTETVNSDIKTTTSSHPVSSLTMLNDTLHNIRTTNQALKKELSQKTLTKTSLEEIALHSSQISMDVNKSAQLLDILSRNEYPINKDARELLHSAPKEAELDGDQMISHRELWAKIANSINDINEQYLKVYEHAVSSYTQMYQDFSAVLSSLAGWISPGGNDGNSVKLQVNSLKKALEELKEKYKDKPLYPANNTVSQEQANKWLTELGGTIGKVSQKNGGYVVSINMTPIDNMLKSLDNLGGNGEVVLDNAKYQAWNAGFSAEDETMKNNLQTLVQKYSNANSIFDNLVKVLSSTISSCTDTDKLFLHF
Assay: flow cytometry on cells; wild-type IpaD on the surface of yeast cells, increasing concentrations of the VHH, fluorescence by FACS; apparent KD, one site-specific binding model (PRISM)
Details: one partner purified

B1: VHH-20ipaD (VHH)
VHH: QVQLVESGGGLVQAGGSLRLSCAVSGLEMQSHAIGWFRQAPGKEREGVSCINDDGSTTRYADSVKGRFTISRDNAKNTVYLQMNSLKPEDTAVYFCAAKSVWFCSVIRSHEFNSWGQGTQVTVSS
notes: the VHH chain is in the complex IpaD/VHH-20ipaD, PDB 5VXM; Monomeric fractions of the gel filtration were pooled; source: E. coli BL21, purified (TEV cleavage, HisTrap flow-through, gel filtration)
Kd: 1.16 nM and 1.15 nM
